# Test results reported in US20180371086A1.
# Target: HIV-1 Env gp120 of virus WITO, on infected cells (HIV-1)
# Assay: cell-based or functional assay
substance,measurement,value
PGT-121 (antibody),killing EC50; HIV-infected CEM-NKr-CCR5-LucR CD4 T cells; PBMC donor 4176; virus WITO,> 100 µg/mL
same,killing EC50; HIV-infected CEM-NKr-CCR5-LucR CD4 T cells; PBMC donor 4288; virus WITO,> 100 µg/mL
